Laboratory results from publication PMC8431961 (Science (New York, N.Y.), 2021).

Molecular target: the molecule itself
Assay: SEC + other: electron microscopy

Protein	binding result
MmMOAP1 (natural protein, mouse, UniProt Q9ERH6 1-352, looked up) MTLRLLEDWCRGMDMNPRKALLVAGIPPTCGVADIEEALQAGLAPLGEHRLLGRMFRRDENKNVALIGLTVETGSALVPKEIPAKGGVWRVIFKPPDTDSDFLCRLNEFLKGEGMTMGELTRVLGNRNDPLGLDPGIMIPEIRAPMLAQALNEALKPTLQYLRYKKLSVFSGRDPPGPGEEEFESWMFHTSQVMKTWQVSDVEKRRRLIESLRGPAFEIIRVLKINNPFITVAECLKTLETIFGIIDNPRALQVKYLTTYQKTDEKLSAYVLRLEPLLQKLVQKGAIEKEVVNQARLDQVIAGAVHKSVRRELGLPEGSPAPGLLQLLTLIKDKEAEEEEVLLQAELEGYCT	binds
MmPNMA3 (natural protein, mouse, UniProt Q8JZW8 1-466, looked up) MPLNLLQDWCRGEHLNTQRSMLILGIPEDCSEDEFEETLHEALKHLGRYRIIGRMFRREENAQAFLVELARDFDYALVPREIEGKGGPWEVVVKPPHSDDEFLNRLNHFLEEERRTVSDMNRVLGTHSNHSPTKTTISADFWVWAQTLGAVMQPLLEQMLYRELRVFSGNTISIPGLLAFDSWLEHTTEMLQMWQVPEVEKRRRLMECLRGPALQVVNVLRANNAAITVKECLEALRQVFGSVDNRKIAQLKFCKAYQEPGEKVSSFVVRLETLLQKALEKNAISRKNVNQTRLKRILGGAILSAKLREKLKMLKQRRRPPGFLALVKLFREEEEEWEATRGSERSCYEGLELGPSPSNIGSEERELFVPAFGSVLEERPYQGSRRRRHRRRGQHRKGGVPRDDSQGTRKQNYDTFCYSCGEDGHIRVHCFNPSNRTLVKQKRQAAMEKGNRSWAWEKSHPKPKTK	binds
MmPNMA5 (natural protein, mouse, UniProt Q5DTT8 1-618, looked up) MAVALLDDWCKGMDLDPKKAVLIVGIPVQYTEAAINDALKEGLPPLCAYKVIGRMFRREDEAKAVLIELPEVVDYTMMPTHIPAEGGAWEVVVKPRSPDDEFMNKLIYFLRDEGRRIVDVAKALGFSTVPTGKIELKNLDQDKPKGLKSLCNNSTCYKKLKVFSGSPFPGPGEESFETWLEEVTELMQLWQVSEREKKQCLLESLRGSALSIMQALWTSNDSLTVEQCLKALKHIFGNKEDSKVLQFRFLQSSQKPAEKVSDYLLRLEPLLQKAVQQSPLSAHSADSIRLKHVLSQVSMTTGLRGKLSLLDQQGCPPTFLELMKLTRDEEEWESTVVVEEQEQVRRDSSACEAANEVVTQAEDSREVSTQTTGEEMTSVKRRRLLWRHSAGEEGQRKESGFWAESEPDEQKPYVRAQESGNERGAWAVSHPNPKEIEAQDSQEFLPVAGNRDTLTKSWGSPDKGTGDMSVAEGQQGQGKAPNFLLARNDPNKQEQIPHSSVTTKWQDRGECQRLKWGASMITRPQGNPDRSWDTSGSQDGEDGCSELRMPTGTEAAQGVEEPATGLSWAEDTSAWEQARLGRETVPRRGGRRIQPVFRIIYTALGEPHEGSTLESFRE	binds
